Measurements: the supplement of paper PMC9112550, “Optimization of the antimicrobial peptide Bac7 by deep mutational scanning” (BMC Biology, 2022)

Test system: Escherichia coli TOP10
Experiment: shrunken log2 fold change of peptide-encoding DNA abundance (4.5 h post-induction vs induction); higher = less antimicrobial activity (less host growth inhibition)
Settings: time post-induction: 4.5 h; library: site-saturation at positions 5, 18, 19, 20
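Also: peptides expressed intracellularly from a pBAD plasmid library in pooled LB shake-flask culture, induced with 0.3% L-arabinose, DNA abundance read by NGS, three biological replicates, DESeq2 with apeglm shrinkage.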

Sequence	shrunken log2 fold change
RRIRFRPPRLPRPRPRPLDEPRP	-0.132
RRIRRRPPRLPRPRPRPQQYPRP	-0.0784
RRIRDRPPRLPRPRPRPHFSPRP	-0.0977
RRIRSRPPRLPRPRPRPSYEPRP	-0.426
RRIRTRPPRLPRPRPRPMISPRP	-0.0443
RRIRCRPPRLPRPRPRPYREPRP	-0.09
RRIRPRPPRLPRPRPRPSGQPRP	-0.0898
RRIRLRPPRLPRPRPRPPQKPRP	0.131
RRIRPRPPRLPRPRPRPSPAPRP	0.209
RRIRDRPPRLPRPRPRPKPMPRP	0.135
RRIRCRPPRLPRPRPRPMDNPRP	-0.411
RRIRIRPPRLPRPRPRPTIDPRP	-0.356
RRIRARPPRLPRPRPRPDAVPRP	0.683
RRIRYRPPRLPRPRPRPPCNPRP	-0.0594
RRIRWRPPRLPRPRPRPWCCPRP	-0.065
RRIRSRPPRLPRPRPRPFEEPRP	-0.345
RRIRHRPPRLPRPRPRPNFYPRP	-0.515
RRIRQRPPRLPRPRPRPRSNPRP	-0.108
RRIRCRPPRLPRPRPRPQGSPRP	0.0401
RRIRGRPPRLPRPRPRPDTIPRP	0.0799
RRIRSRPPRLPRPRPRPLSHPRP	-0.462
RRIRNRPPRLPRPRPRPLCKPRP	-0.146

Sequence	shrunken log2 fold change
RRIRHRPPRLPRPRPRPKEEPRP	-0.0523
RRIRSRPPRLPRPRPRPTKPPRP	0.196
RRIRTRPPRLPRPRPRPLPYPRP	-0.0545
RRIRHRPPRLPRPRPRPGCMPRP	-0.0922
RRIRERPPRLPRPRPRPSSRPRP	-0.107
RRIRVRPPRLPRPRPRPYYAPRP	-0.915
RRIRERPPRLPRPRPRPAYKPRP	-0.21
RRIRVRPPRLPRPRPRPRSQPRP	0.25
RRIRERPPRLPRPRPRPHEDPRP	0.111
RRIRVRPPRLPRPRPRPLNQPRP	-0.0183
RRIRRRPPRLPRPRPRPVNWPRP	0.439
RRIRRRPPRLPRPRPRPSKGPRP	-0.518
RRIRTRPPRLPRPRPRPGELPRP	-0.108
RRIRSRPPRLPRPRPRPDPPPRP	0.746
RRIRGRPPRLPRPRPRPHGCPRP	0.585
RRIRERPPRLPRPRPRPNPGPRP	-0.55
RRIRFRPPRLPRPRPRPHKKPRP	-0.369
RRIRNRPPRLPRPRPRPVHSPRP	-0.245
RRIRSRPPRLPRPRPRPRDTPRP	0.0657
RRIRFRPPRLPRPRPRPIADPRP	-0.0956
RRIRWRPPRLPRPRPRPCAFPRP	0.176
RRIRTRPPRLPRPRPRPHTWPRP	-0.281

Sequence	shrunken log2 fold change
RRIRGRPPRLPRPRPRPEDLPRP	0.582
RRIRFRPPRLPRPRPRPEPIPRP	0.291
RRIRCRPPRLPRPRPRPNEAPRP	0.00978
RRIRARPPRLPRPRPRPLIVPRP	0.287
RRIRWRPPRLPRPRPRPTTPPRP	0.642
RRIRLRPPRLPRPRPRPVIMPRP	-0.0794
RRIRARPPRLPRPRPRPIGNPRP	0.00902
RRIRERPPRLPRPRPRPAQGPRP	0.473
RRIRLRPPRLPRPRPRPPPAPRP	1.52
RRIRMRPPRLPRPRPRPQISPRP	-0.28
RRIRERPPRLPRPRPRPIWQPRP	0.062
RRIRFRPPRLPRPRPRPTVNPRP	2.04
RRIRVRPPRLPRPRPRPKAEPRP	-0.00229
RRIRHRPPRLPRPRPRPQVPPRP	0.0019
RRIRRRPPRLPRPRPRPMPYPRP	-0.0473
RRIRTRPPRLPRPRPRPICRPRP	0.0229
RRIRQRPPRLPRPRPRPYKRPRP	-0.213
RRIRTRPPRLPRPRPRPALWPRP	0.213
RRIRVRPPRLPRPRPRPMKKPRP	0.0174
RRIRERPPRLPRPRPRPKHMPRP	-0.21
RRIRKRPPRLPRPRPRPEEDPRP	0.0229
RRIRGRPPRLPRPRPRPTNVPRP	0.141

Sequence	shrunken log2 fold change
RRIRGRPPRLPRPRPRPECEPRP	1.88
RRIRKRPPRLPRPRPRPQVPPRP	0.325
RRIRRRPPRLPRPRPRPPRDPRP	1.48
RRIRPRPPRLPRPRPRPTHLPRP	0.23
RRIRNRPPRLPRPRPRPALWPRP	-0.15
RRIRVRPPRLPRPRPRPSPEPRP	-0.142
RRIRFRPPRLPRPRPRPVHYPRP	-0.195
RRIRDRPPRLPRPRPRPPYIPRP	-0.346
RRIRSRPPRLPRPRPRPWNIPRP	-0.0599
RRIRYRPPRLPRPRPRPSNYPRP	-1.28
RRIRFRPPRLPRPRPRPKERPRP	0.193
RRIRWRPPRLPRPRPRPPTDPRP	0.415
RRIRYRPPRLPRPRPRPNSHPRP	-0.839
RRIRIRPPRLPRPRPRPGGCPRP	0.0544
RRIRNRPPRLPRPRPRPWMRPRP	0.311
RRIRKRPPRLPRPRPRPCSRPRP	0.015
RRIRVRPPRLPRPRPRPPIFPRP	-0.067
RRIRVRPPRLPRPRPRPLDNPRP	-0.0763
RRIRKRPPRLPRPRPRPDCCPRP	0.435
RRIRFRPPRLPRPRPRPGMTPRP	-0.142
RRIRRRPPRLPRPRPRPAIKPRP	0.304
RRIRDRPPRLPRPRPRPPMFPRP	0.216

Sequence	shrunken log2 fold change
RRIRVRPPRLPRPRPRPAGVPRP	0.283
RRIRVRPPRLPRPRPRPVIPPRP	-0.0964
RRIRFRPPRLPRPRPRPRKHPRP	0.0878
RRIRLRPPRLPRPRPRPAAKPRP	0.602
RRIRWRPPRLPRPRPRPQQCPRP	0.112
RRIRGRPPRLPRPRPRPWHVPRP	-0.0733
RRIRYRPPRLPRPRPRPHKHPRP	-0.91
RRIRHRPPRLPRPRPRPGCHPRP	-0.242
RRIRNRPPRLPRPRPRPLICPRP	-0.771
RRIRCRPPRLPRPRPRPVQFPRP	0.13
RRIRMRPPRLPRPRPRPDYEPRP	-0.0178
RRIRRRPPRLPRPRPRPCGDPRP	0.478
RRIRVRPPRLPRPRPRPRYTPRP	0.0365
RRIRFRPPRLPRPRPRPRYTPRP	-0.15
RRIRSRPPRLPRPRPRPAPLPRP	0.163
RRIRDRPPRLPRPRPRPMATPRP	0.415
RRIRVRPPRLPRPRPRPRTHPRP	0.199
RRIRERPPRLPRPRPRPALQPRP	0.22
RRIRCRPPRLPRPRPRPNMTPRP	-0.229
RRIRERPPRLPRPRPRPIYMPRP	-0.372
RRIRCRPPRLPRPRPRPVKLPRP	-0.176
